In article PMC11554226 (2024):
Where a chain is given by its changes, count along the chain named. Numbers in names are those of the source.

B1: Tnb04-1 R50Q (nanobody-Fc) (Fc fusion)
chain: EVQLVESGGGLVQPGGSLRLSCAASGSISTLNVMGWYRQAPGKQRELVAQITLDGRPEYADSVKGRFTITKDGAQSTLYLQMNNLKPEDTAVYFCKLENGGFFYYWGQGTQVTVSS
B2: Tnb04-1 R56S (nanobody-Fc) (Fc fusion)
chain: B1 chain with Q50R, R56S

Target: receptor-binding domain (RBD) of SARS-CoV-2 prototype strain (SARS-CoV-2 prototype strain, UniProt P0DTC2)
Assay: SPR

Binder	Kd
B1	0.471 nM
B2	0.535 nM
